Test results reported in the supplement of paper PMC10201428.
± gives the standard deviation of the averaged measurements.

B1: library; a variant is named by its letters at N, in order (parent)
chain: AATGTTGTTGATGCAACCATAAAGTGATATTTAATAATTATTTATAATCAGCAACTTAACCACAAAACAACCATATATTGATATNTCACAAAACAACCATAANTTGATATTTTTGTGAATCGAGTATTTCAGCAAAACTACTGCAGTAAGAA

Tests used:
[1] = variants of: B1; test: relative integration efficiency (T-LR orientation) vs wild-type transposon end (log2 (normalized fold change)); transposon end mutated: left end; higher = more efficient transposition; settings: with VchCAST RNA-guided transposition machinery (E. coli BL21(DE3) host, lacZ target)
Method: (§1)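 Pooled, barcoded VchCAST (Tn6677) mini-transposon donor libraries; each variable transposon-end sequence sits in a fixed pDonor mini-transposon context (10-bp barcode and cargo not included). Left- or right-end libraries were co-transformed with pEffector (TniQ-Cascade, TnsABC, lacZ crRNA, T7, 0.1 mM IPTG) into E. coli BL21(DE3) and grown 18 h at 37 C. T-LR and T-RL junction amplicons were sequenced; output/input barcode fold change was normalised to the mean of four wild-type barcodes and log2-transformed. Two biological replicates; zero-count/undetected variants carry floor values (-10 / -15), censored here. Barcode uncoupling by PCR recombination adds noise.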

[2] = variants of: B1; test: relative integration efficiency (T-RL orientation) vs wild-type transposon end (log2 (normalized fold change)); transposon end mutated: left end; higher = more efficient transposition; settings: with VchCAST RNA-guided transposition machinery (E. coli BL21(DE3) host, lacZ target)
Method: as §1

Variant	relative integration efficiency (log2) [1]	relative integration efficiency (log2) [2]
CG A119C T120G	-0.429 ± 1.1	-0.131 ± 0.072
TA A22T G24T T31C A33C T76A T78A T84A C87A A96C T112G T113C	-0.159 ± 0.75	-0.261 ± 0.33
CG T35G A36C	-0.467 ± 0.11	-0.318 ± 0.071
CG G115C	0.709 ± 0.14	0.417 ± 0.026
CG A27C A81C A107C	-1.49 ± 1.6	-1.32 ± 0.78
CG T108A A109T T110A T111A	-1.21 ± 0.27	-0.957 ± 0.51
CG T86G	0.0399 ± 0.26	-0.108 ± 0.045
CG G26C A27T	-3.33 ± 1.1	-2.12 ± 0.85
CG A36C A37C	0.196 ± 0.61	0.127 ± 0.018
CG T32G	-0.347 ± 0.098	-0.146 ± 0.14
CG G26T A27C	-0.945 ± 0.26	-1.68 ± 0.7
CG A22T A23T G24C T25A	-1.61 ± 0.58	-1.21 ± 0.56
CG G13C C14G A15T A16T	-1.69 ± 1.2	-1.03 ± 0.47
CG C63T	0.266 ± 0.018	0.0804 ± 0.061
CG T82A A83T	-0.417 ± 0.84	-0.851 ± 0.49
CG A21G	-0.166 ± 0.32	-0.412 ± 0.49
CG T8G	< -10	-6.68 ± 0.98
CG C52G A53T	0.253 ± 0.28	0.138 ± 0.048
CG A96C C97A	-2 ± 1	-1.33 ± 0.57
CC A22T A23T T76A A77T A102T	-0.252 ± 0.23	-0.313 ± 0.27
CG A64G	-0.0623 ± 0.097	-0.383 ± 0.14
CG C72T	-0.0498 ± 0.25	-0.0527 ± 0.2
CG T114C	-0.293 ± 0.5	-0.448 ± 0.095
CG A16T A70T A96T	-1.37 ± 0.86	-0.887 ± 0.43

Variant	relative integration efficiency (log2) [1]	relative integration efficiency (log2) [2]
GG T31A T111A	-0.483 ± 0.67	-0.581 ± 0.56
CG A22C A23C	-1.74 ± 0.31	-1.42 ± 0.42
TG A16C G24T T30A A70C T76A T86G	0.235 ± 0.55	0.0267 ± 0.24
TA A16C G24T T30A T76A T78A T84A C87A A102T T111C T113C	-0.306 ± 1.3	-0.415 ± 0.32
CG T41A	-0.651 ± 0.73	0.0865 ± 0.047
CG A29C T30G T31G T32G	-0.555 ± 0.56	-0.723 ± 0.61
CG T86G C87A A88C C89A	-0.0346 ± 0.016	0.0789 ± 0.1
CG A81T T82A A83T T84A	-0.679 ± 1.2	-0.753 ± 0.74
CG C49T	-0.164 ± 0.35	0.0612 ± 0.15
CG A69C A70C	-0.684 ± 0.62	-0.537 ± 0.29
CG C18A	0.107 ± 0.17	-0.181 ± 0.016
CG T32A A77C T86G	-0.351 ± 0.47	-0.197 ± 0.12
TA A16C G24T T32G A33C A70C T76A T86G A96C T112G T113C	-1.11 ± 0.096	-0.726 ± 0.16
CG C17A C71A C97A	-0.871 ± 0.35	-1.21 ± 0.59
CG A11C T12G	-1.34 ± 0.53	-0.436 ± 0.26
CG A91T	-0.0651 ± 0.68	-0.101 ± 0.084
CG C71G C72G A73T T74A	-1.87 ± 0.61	-2.18 ± 0.97
CG A23C G24T	-0.153 ± 0.042	-0.106 ± 0.064
CG T3A	-0.175 ± 0.58	-0.148 ± 0.071
CG A93C	-0.0609 ± 0.5	-0.288 ± 0.19
CG A93G	-0.13 ± 0.37	-0.207 ± 0.083
CG T28A	-0.399 ± 0.64	-0.37 ± 0.28
CC T104A	-0.472 ± 0.64	-0.478 ± 0.0072
TA A23G G24T A33T T76A T78A T84A C87A A96C T112G T113C	-0.309 ± 0.24	0.136 ± 0.2

Variant	relative integration efficiency (log2) [1]	relative integration efficiency (log2) [2]
CG A2C T3G	0.286 ± 0.049	-0.0688 ± 0.0099
CG G117A	-0.315 ± 0.5	-0.123 ± 0.016
CG G117C	-0.761 ± 0.33	-0.41 ± 0.12
CG A66T	0.195 ± 0.21	0.0703 ± 0.19
TA A70C T76A T86G T104A T110A T113A	0.0387 ± 0.67	-0.344 ± 0.23
CA G24A T30A T104A T110A T113A	-0.0948 ± 0.19	-0.387 ± 0.2
CA G24A T30A A96C T110A T113A	-0.0456 ± 0.31	-0.302 ± 0.28
TA G24A T30A T76A T78A T84A C87A A102T T111C T113C	-0.493 ± 1.1	-0.0919 ± 0.22
CG A53T A54T C55G T56A	-0.3673 ± 0.0015	-0.413 ± 0.41
TA T76A T78G C87A T104A T110A T113A	0.215 ± 0.49	-0.291 ± 0.22
CG T30A T84A T110A	-0.322 ± 0.51	-0.403 ± 0.24
CG A40T T41A T42A T43A	0.256 ± 0.21	0.0403 ± 0.12
TA A16C G24T T30A A70C T76A T84A C87A A102T T111C T113C	-0.517 ± 1.4	-0.107 ± 0.55
CG G106C A107T T108A A109T	-1.44 ± 0.63	-1.36 ± 0.7
CG T112G	-0.249 ± 0.13	-0.63 ± 0.13
TA A16C G24T T30A A70C T76A T84A C87A A96C T112G T113C	-0.489 ± 0.88	0.259 ± 0.14
CG T57G	-1.94 ± 0.91	-1.33 ± 0.56
TA A16C G24T T32G A33C A70C T76A T84A C87A T104A T110A T113A	-2.03 ± 1.6	-0.844 ± 0.55
CG A95T A96T C97G C98G	-1.79 ± 0.29	-1.94 ± 0.81
CG C63A A64C A65C A66C	-0.236 ± 0.15	-0.189 ± 0.012
CG A16C G24T T30A	-0.135 ± 0.14	-0.3 ± 0.21
TA G24A T30A T76A T78G C87A A96C T112G T113C	0.0921 ± 0.22	0.299 ± 0.056
CG C49G G51T C52G C55T A58T A59T C60A C61T A62G	-4.34 ± 2.5	-4.9 ± 0.68
CG A46C A47C	-0.43 ± 0.42	-0.349 ± 0.19

Variant	relative integration efficiency (log2) [1]	relative integration efficiency (log2) [2]
CG A77C T78G	0.461 ± 0.32	0.644 ± 0.21
CG A36T A37T	0.375 ± 0.21	0.0996 ± 0.091
CA A22T G24T T31C A33C T104A T110A T113A	-0.859 ± 0.31	-0.686 ± 0.34
CG A75C T76G A77C T78G	-2.25 ± 1.6	-1.8 ± 0.61
CG A67T	-0.588 ± 0.78	-0.202 ± 0.27
CG A33T A34T T35A A36T	0.405 ± 0.42	0.295 ± 0.092
CG T76G	-0.699 ± 0.91	-0.903 ± 0.5
CG T76C	-1.37 ± 0.51	-1.06 ± 0.46
TA T76A T78G C87A A102T T111C T113C	-0.0555 ± 0.34	-0.0993 ± 0.033
CG A34C A36G T38C T42C A62G A65G A66C	-0.874 ± 0.72	-0.721 ± 0.33
GG T84A	-0.365 ± 0.032	-0.231 ± 0.12
CT T104G T105G G106T	-1.03 ± 0.46	-1.06 ± 0.9
TA A23G G24T A33T T76A T78G C87A T104A T110A T113A	0.283 ± 0.28	0.0976 ± 0.22
CG A33T	0.232 ± 0.46	0.135 ± 0.21
CG T108G	-0.924 ± 0.023	-0.684 ± 0.41
CG T108C	-0.173 ± 0.39	-0.187 ± 0.35
CG A88T	0.112 ± 0.73	0.0226 ± 0.1
CG T38G T39G	0.139 ± 0.043	-0.161 ± 0.039
CG C18A C72A C98A	-1.73 ± 0.24	-1.91 ± 0.81
CG A99T	-1.41 ± 0.62	-0.877 ± 0.54
TA A22T G24T T31C A33C A70C T76A T84A C87A T104G T113A	-0.566 ± 0.36	-0.81 ± 0.5
CG C17G C71G C97G	-1.57 ± 1	-1.28 ± 0.76
CG T9G	0.416 ± 0.19	0.28 ± 0.09
CG A2T	0.355 ± 0.34	-0.141 ± 0.054

Variant	relative integration efficiency (log2) [1]	relative integration efficiency (log2) [2]
CG A58T A59T C60G C61G	-0.383 ± 0.24	-0.275 ± 0.27
CG A77G	0.0745 ± 0.45	-0.243 ± 0.024
CG A77C	0.611 ± 0.89	0.337 ± 0.052
CG T32G A33C A34C T35G	0.074 ± 0.25	-0.364 ± 0.079
CG A59C	0.591 ± 0.26	0.072 ± 0.14
CG A58G	-0.0735 ± 0.46	-0.101 ± 0.063
CG A119C	0.11 ± 0.18	-0.107 ± 0.1
CG A119G	0.273 ± 0.044	0.0234 ± 0.071
TA T76A A77G C87T T104G T113A	0.151 ± 0.33	-0.605 ± 0.42
CG G115C T116A	0.199 ± 0.12	-0.00924 ± 0.092
CG T43A A44T T45A A46T	-1.06 ± 1.4	0.138 ± 0.031
CG C87T	-0.29 ± 0.12	-0.0232 ± 0.071
CG A77T T78A	0.574 ± 0.48	0.149 ± 0.12
CG A65G	0.108 ± 0.82	0.247 ± 0.21
TA A16C G24T T30A A70C T76A T84A C87A T104A T110A T113A	-0.0907 ± 0.0099	0.0016 ± 0.4
CG A73T T74A	-0.734 ± 0.56	-0.97 ± 0.4
CG T25G G26T	-0.611 ± 0.7	-0.737 ± 0.33
TG A23G G24T A33T T76A A77G C87T	0.312 ± 0.44	-0.26 ± 0.39
AG T82G A83C T84G	-1.31 ± 0.38	-1.7 ± 0.88
CG C71A	-0.709 ± 0.022	-0.461 ± 0.26
